Experimental data reported in patent US11612667B2, “Enhanced in vivo targeting of radiolabelled peptides with the means of enzyme inhibitors” (Advanced Accelerator Applications USA, Inc., priority 2011, dated 2023).
pIC50: −log10 of the molar value. Where two headings read alike, the source gives them in different places. Non-standard residues stand in square brackets, D forms with d. Residues, ends and D or L forms follow the SMILES beside them. *: point of attachment. DOTA = O=C(O)CN1CCN(CC(=O)O)CCN(CC(=O)*)CCN(CC(=O)O)CC1; Tle = CC(C)(C)[C@H](N)C(=O)O; X1 = NCCNCC(CNCCN)C(=O)*; Dab = NCC[C@H](N)C(=O)O; βAla = NCCC(=O)O

How the values were obtained:
NEP = NEP (Homo sapiens, UniProt P08473); settings: reversible competitive inhibitor; cited from earlier work
NEP, sequence (P08473 whole entry): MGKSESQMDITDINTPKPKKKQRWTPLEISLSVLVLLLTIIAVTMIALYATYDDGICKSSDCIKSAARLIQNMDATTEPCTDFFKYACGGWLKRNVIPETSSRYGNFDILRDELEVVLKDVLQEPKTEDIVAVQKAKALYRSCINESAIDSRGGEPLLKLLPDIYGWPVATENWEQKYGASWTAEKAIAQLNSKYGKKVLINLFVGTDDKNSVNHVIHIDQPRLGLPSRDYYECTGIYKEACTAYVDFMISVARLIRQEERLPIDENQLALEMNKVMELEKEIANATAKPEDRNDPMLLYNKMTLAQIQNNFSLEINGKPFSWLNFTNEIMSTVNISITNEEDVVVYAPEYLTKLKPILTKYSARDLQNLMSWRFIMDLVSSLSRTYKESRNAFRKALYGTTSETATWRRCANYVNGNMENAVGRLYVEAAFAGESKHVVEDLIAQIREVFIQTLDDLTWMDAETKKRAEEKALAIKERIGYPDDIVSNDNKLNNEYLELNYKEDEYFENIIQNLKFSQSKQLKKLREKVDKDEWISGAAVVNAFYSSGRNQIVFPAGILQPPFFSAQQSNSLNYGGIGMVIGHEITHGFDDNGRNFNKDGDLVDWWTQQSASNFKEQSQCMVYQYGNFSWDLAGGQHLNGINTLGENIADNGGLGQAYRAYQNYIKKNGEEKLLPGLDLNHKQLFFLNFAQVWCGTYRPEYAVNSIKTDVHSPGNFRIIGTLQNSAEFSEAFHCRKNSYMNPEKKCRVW

AR4-2J tumors (rsst2+) = test system: AR4-2J tumors (rsst2+); design: species or system SCID mice; settings: SCID, mouse, in vivo, 4 h
Method: FIG. 1D: Biodistribution of [(^111In-DOTA)Ala^1]Somatostatin-14 in SCID mice bearing AR4-2J tumors (rsst2^+) at 4 h pi.
FIG. 2C: Biodistribution of [(^111In-DOTA)Ala^1, DTrp^8]Somatostatin-14 in SCID mice bearing AR4-2J tumors (rsst2^+) at 4 h pi.
Of great importance is the direct translation of PA-(or race) induced radiopeptide stabilization into meaningful and dramatic increase of tumor uptake in animals. Indeed, uptake in the rsst2^+ AR4-2J tumor after injection of ^111In[(DOTA)Ala^1]SS14 reached 13.87±2.4% ID/g in the PA-treated group at 4 h pi vs. 0.67±0.1% ID/g in the non-treated controls, while in the race pre-treated mice tumor values reached 3.51±0.2% ID/g, as presented in FIG. 1B. The corresponding values for the DTrp^8-analog, shown in FIG. 2B, reach 9.06±3.57% ID/g (PA group), 4.18±2.28% ID/g (race group) and 1.82±0.36% ID/g (non-treated controls).

[1] = mouse; cited from earlier work
WiDr tumors (hNTS1+) = test: Biodistribution / tumor uptake in SCID mice bearing WiDr tumors (hNTS1+); settings: SCID, mouse, in vivo, 4 h
Method: FIG. 4H: Biodistribution of [^99mTc]Demotensin 6 in SCID mice bearing WiDr tumors (hNTS1^+) at 4 h pi. Bars represent average uptake as mean % injected dose per gram (% ID/g) of at least 4 animals with standard deviation (control at 4 h 2nd bars); three additional groups of animals received either excess NT(1-13) and PA (100 μg blocker and 300 μg PA—first bars), or PA (300 μg PA—3rd bars) or PA and Lis (300 μg PA+250 μg Lis—4th bars). Bl=blood, Li=liver, He=heart, Ki=kidneys, St=stomach, In=intestines, Sp=spleen, Mu=muscle, Lu=lungs, Pa=pancreas, Fe=femur and Tu=WiDr tumor.
FIG. 5H: Biodistribution of [^99mTc]Demotensin 1 in SCID mice bearing WiDr tumors (hNTS1+) at 4 h pi. Bars represent average uptake as mean % injected dose per gram (% ID/g) of at least 4 animals with standard deviation (control at 4 h 2nd bars); three additional groups of animals received either excess NT and PA (100 μg and 300 μg PA, respectively—first bars), or PA (300 μg PA—3rd bars) or PA and Lis (300 μg PA+300 μg Lis—4th bars). Bl=blood, Li=liver, He=heart, Ki=kidneys, St=stomach, In=intestines, Sp=spleen, Mu=muscle, Lu=lungs, Pa=pancreas, Fe=femur and Tu=WiDr tumor.
In FIG. 4B the effects of such regimens on SCID mice bearing the human colon adenocarcinoma WiDr tumor (a hNTS1R^+ tumor) on enhancing in vivo tumor targeting are presented.
In FIG. 5B the effects of above regimens on SCID mice bearing WiDr tumors (hNTS1R^+) on enhancing in vivo tumor targeting are shown.

[2] = human; cited from earlier work
[3] = design: species or system Swiss albino mice; settings: mouse, in vivo, 5 min
Method: Whole blood was collected 5 min postinjection (pi), blood cells were removed and major proteins were precipitated and then the supernatant was analyzed by RP-HPLC coupled to a gamma detector.
Alternatively, the dual NEP and ACE inhibitor racecadotril (race; 2.5 mg) was ip injected 45-60 min prior to radioligand injection and the same procedure was followed as described above.
To test the in vivo stability, ^111In-DOTA-MG11 was injected in the tail vein of Swiss albino mice and 5 min afterwards blood was collected, blood cells were removed and major proteins were precipitated and then the supernatant was analyzed by RP-HPLC coupled to a gamma detector. As shown in the radiochromatogram of FIG. 3A, the major part of ^111In-DOTA-MG11 was consumed during this period (<5% intact peptide still detected), in agreement with previous reports. Further, ^111In-DOTA-MG11 was co-injected together with PA or injected 1 h after ip injection of race (2.5 mg) in more mice and the same protocol was followed as above. Amazingly, the percentage of ^111In-DOTA-MG11 found intact in the blood of the PA-treated mice was raised from <5% to 75% and in the race-pretreated mice to 73%.
For ex vivo blood analysis, [^99mTc]Demotensin 6 was injected in the tail vein of Swiss albino mice and blood collected 5 min thereafter was analyzed as previously described. The effect of PA on stability was studied by co-injection of PA along with [^99mTc]Demotensin 6. Furthermore, a PA dose study was performed with the PA injected dose ranging from 300 μg down to 0.03 μg and results are summarized in FIG. 4A.
Additional groups of radiopeptides with relevance for nuclear medicine applications have been studied for their in vivo stability. Radiopeptides were injected in the tail vein of healthy mice, either alone, or with a NEP inhibitor (PA—300 μg), or with a NEP (PA—300 μg) and an ACE (Lis—300 μg) inhibitor mixture; alternatively, another NEP inhibitor prodrug (race—2.5 mg) was ip injected in the animals ˜45 min prior to radioligand injection. Blood was collected 5 min afterwards, and analyzed by RP-HPLC after suitable preparation, as previously described.

AR4-2J tumors (rCCK2R+) = test system: AR4-2J tumors (rCCK2R+); design: species or system SCID mice; settings: mouse, in vivo
Method: FIG. 3D: Biodistribution of ^111In-DOTA-MG11 in SCID mice bearing AR4-2J tumors (rCCK2R^+) at 4 h pi.
Biodistribution results in SCID mice bearing rCCK2R^+ AR4-2J tumors 4 h after injection of ^111In-DOTA-MG11 alone or together with PA or 1 h after ip injection of race are shown in FIG. 3B.

SMILES: CC(C)C[C@H](NP(=O)(O)O[C@@H]1O[C@@H](C)[C@H](O)[C@@H](O)[C@H]1O)C(=O)N[C@@H](Cc1c[nH]c2ccccc12)C(=O)O [Phosphoramidon, phosphoramidon]
- pIC50 (NEP): 7.47

SMILES: C[C@H](NC(=O)CN1CCN(CC(=O)O)CCN(CC(=O)O)CCN(CC(=O)O)CC1)C(=O)NCC(=O)N[C@H]1CSSC[C@@H](C(=O)O)NC(=O)[C@H](CO)NC(=O)[C@H]([C@@H](C)O)NC(=O)[C@H](Cc2ccccc2)NC(=O)[C@H]([C@@H](C)O)NC(=O)[C@H](CCCCN)NC(=O)[C@H](Cc2c[nH]c3ccccc23)NC(=O)[C@H](Cc2ccccc2)NC(=O)[C@H](Cc2ccccc2)NC(=O)[C@H](CC(N)=O)NC(=O)[C@H](CCCCN)NC1=O [[(^111In-DOTA)Ala^1]Somatostatin-14, metal not drawn]
- uptake in AR4-2J tumor (AR4-2J tumors (rsst2+)): 0.67±0.1 % ID/g

SMILES: CC(C)C[C@H](NC(=O)[C@@H](NC(=O)[C@H](Cc1ccc(O)cc1)NC(=O)[C@@H]1CCCN1C(=O)[C@H](CCN)NC(=O)[C@H](CCCNC(=N)N)NC(=O)CCNC(=O)C(CNCCN)CNCCN)C(C)(C)C)C(=O)O [[^99mTc]Demotensin 6, ^99mTc-N4-βAla-Arg-Dab-Pro-Tyr-Tle-Leu-OH, metal not drawn] ({X1-βAla}-R[Dab]PY[Tle]L-OH)
- in vitro stability in plasma [1]: stable
- uptake in WiDr tumor (WiDr tumors (hNTS1+)): 1.61±0.42 % ID/g
- in vitro stability in plasma [2]: stable
- percentage of parent peptide remaining intact [3]: 52%

SMILES: CSCC[C@H](NC(=O)[C@H](Cc1c[nH]c2ccccc12)NC(=O)CNC(=O)[C@H](Cc1ccc(O)cc1)NC(=O)[C@H](C)NC(=O)[C@@H](CCC(=O)O)NC(=O)CN1CCN(CC(=O)O)CCN(CC(=O)O)CCN(CC(=O)O)CC1)C(=O)N[C@@H](CC(=O)O)C(=O)N[C@@H](Cc1ccccc1)C(N)=O [^111In-DOTA-MG11, [(^111In-DOTA)DGlu^10]Minigastrin(10-17), metal not drawn] ({DOTA}-[dE]AYGWMDF-NH2)
- uptake in AR4-2J tumor (AR4-2J tumors (rCCK2R+); SCID, 4 h): 1.22±0.06 % ID/g
- increase in the tumor by PA administration (AR4-2J tumors (rCCK2R+)): > 9 fold
- percentage of parent peptide remaining intact [3]: < 5%
